B1: His-tagged ARL-3 (natural protein, C. elegans, UniProt O45379 1-184, looked up)
chain: MGLIDVLKSFKSPSGREIRILLLGLDNAGKTTILKQLSSEDVQHVTPTKGFNVKTVAAMGDIRLNVWDIGGQRSIRPYWSNYYENIDTLIFVIDSNDKKRFDEMNIELGELLDEEKLRKVPVLIFANKQDLVTAASSEEITRKLNLDLLRDRTWHIQACSALKNEGINDGITWVASNLKPASKK
notes: ARL-3, small GTPase of C. elegans, wild type; the methods speak of full-length and/or truncated cDNAs, and no truncation of ARL-3 is named; also called His-ARL-3; source: E. coli BL21, purified (His resin); not shown: His, N-terminal, kept

Columns and labels:
[1] = biological target: T1, UNC-119, recombinant, as used in the GST pull-downs with ARL-3 and its variants (C. elegans, UniProt Q10658 1-219); assay: pull-down; GST pull-down: His-tagged protein incubated with GST-tagged protein immobilised on glutathione sepharose; 25 mM Tris-HCl pH 7.4, 150 mM NaCl, 0.5% Triton X-100, 1 mM DTT, 10% glycerol, 4 hours at 4 °C; six washes; anti-His immunoblot; conditions: both partners purified
T1 construct: if it carried the His tag it is the same construct as m6 and ARL-3 was GST-fused; source: E. coli BL21, purified (His resin or glutathione sepharose)
T1 sequence (Q10658 whole entry, change not shown, the tested form may be a part): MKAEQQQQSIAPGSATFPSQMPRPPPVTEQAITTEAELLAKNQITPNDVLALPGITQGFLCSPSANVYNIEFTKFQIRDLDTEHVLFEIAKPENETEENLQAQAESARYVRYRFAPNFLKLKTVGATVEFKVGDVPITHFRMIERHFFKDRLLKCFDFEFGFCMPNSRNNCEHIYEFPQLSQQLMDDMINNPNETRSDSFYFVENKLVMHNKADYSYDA

[2] = biological target: B1; assay: cell-based or functional assay

| binding result [1] | mantGDP release from GDP-preloaded ARL-3 (in vitro GEF assay), ARL-13 from one-tenth molar (~2 fold) to a 1:1 molar ratio [2] [fold] | Binder |
| --- | --- | --- |
| binds |  | B1 |
| binds |  | ARL-3 dominant negative (DN, T31N) variant, recombinant (natural protein, C. elegans, UniProt O45379 1-184, looked up, ARL-3, C. elegans, dominant negative variant T31N; also called ARL-3 DN; ARL-3DN (T31N); source: E. coli BL21, purified (His resin or glutathione sepharose)) MGLIDVLKSFKSPSGREIRILLLGLDNAGKNTILKQLSSEDVQHVTPTKGFNVKTVAAMGDIRLNVWDIGGQRSIRPYWSNYYENIDTLIFVIDSNDKKRFDEMNIELGELLDEEKLRKVPVLIFANKQDLVTAASSEEITRKLNLDLLRDRTWHIQACSALKNEGINDGITWVASNLKPASKK |
| binds |  | ARL-3 dominant active (DA, Q72L) variant, recombinant (natural protein, C. elegans, UniProt O45379 1-184, looked up, ARL-3, C. elegans, dominant active variant Q72L; also called ARL-3 DA; source: E. coli BL21, purified (His resin or glutathione sepharose)) MGLIDVLKSFKSPSGREIRILLLGLDNAGKTTILKQLSSEDVQHVTPTKGFNVKTVAAMGDIRLNVWDIGGLRSIRPYWSNYYENIDTLIFVIDSNDKKRFDEMNIELGELLDEEKLRKVPVLIFANKQDLVTAASSEEITRKLNLDLLRDRTWHIQACSALKNEGINDGITWVASNLKPASKK |
|  | ~7 | GST-fused full length ARL-13 (FL) (natural protein, C. elegans, UniProt H2L0N8-2 1-367, looked up) MTEKSWFETIFCCCCHRTPIIRREIKLGCFGIGSAGKTTFLKVLKGEDPRDLLRTNGFSTVKMEYDETFHLTIYDVGGDKGIRGIWSNYYAEVHGIIYVIDYSTDETFTESIEALHSLTSNPHVQKKPIFLLLNNQNNREFDDVEISNETKIQAGQHKIVLFSHFNKYNGYLDNIKSATLTVMARAKKDRNEYQEQFVRFIDSISEHYVELSEGVKTAELALRIRQEEAKEQRRLMQMKVEHDALKADVAGLELRNQPPVQPPIPPDPPSDPKSASVHIEESPPMSLASSTIPSDIIQSTPETGTPRDPVKISQTSTKPVSPESNSVKEEPTIILKDNYFLPPKAPGRQYSRIQRIQNVLNNRVVPK |
